Test: Determination of enzymatic activity (POD/Phenol/4A.A. method)
Type: biochemical
Settings: substrate 10 mM, PPb pH 7.0 50 mM, absorbance at 505 nm; recombinant FAO produced by Escherichia coli compared with enzyme produced by wild-type Pichia sp. N1-1
Method: Reactivity of the purified enzyme prepared in Example 5 to fructosyl valine, N′-fructosyl lysine, fructosyl glycine, fructosyl alanine, fructosyl leucine, fructosyl phenylalanine, glucose and sarcosine was examined. The measurement was conducted using a solution containing a substrate (10 mM), PPb (pH 7.0, 50 mM), phenol (1.5 mM), 4-aminoantipyrine (1.5 mM) and peroxidase (2 U/ml), and changes in the absorbance at 505 nm were measured according to the POD/Phenol/4A.A. method. […] N1-1 strain of wild type.

activity and substrate specificity of the enzyme: higher activity
B1: recombinant FAO: Fructosylamine oxidase derived from Pichia sp. N1-1 (SEQ ID NO: 1), recombinantly produced in Escherichia coli DH5α/pTN1 and purified (protein, listed as Pichia sp.)
chain: MESIIIVGAGTFGLSTALQLARDGYKNIKCFDKFPVPSEIAAGNDSNKIFHYDYVAPLAKPNSKERLSLEALHLWKTDPVYKPYYHPVGFILAASSDAPLLHDKEYYEELQKNGLRNYRYISTPEEFREYLPILKGPLPNWRGYVLDGDNGWLHARDSLKSAYEECKRLGVEFVFGDDGEIVELLNENGKLTGIRARSGAIFSAQKYVLSSGANAVTLLNFQRQLEGKCFTLAHFKVTDEEAKAFKSLPVLFNAEKGFFFEADENNEIKICNEYPGFTHTNESGESIPLYRMEIPLESALEIRQYLKETMPQFADRPFTKTRICWCTDSPDMQLILCTHPEYTNLIVASGDSGNSFKIMPIIGKYVSKVVTKGDKGLDPEDKECWKWRPETWDKRGQVRWGGRYRVADLNEIEEWVSVENPTPHKLE
